Data on two substances can be found in patent US20070207532.

The target in series [1] is AGT mutant of Example 1 (GST fusion) Lys125Ala, Ala127Thr, Arg128Ala, Asn157Gly, Ser159Glu (Homo sapiens) (UniProt P16455). The settings on record: co-purified DNA estimated by A280/A260 after purification in 50 mM phosphate, 0.1 M NaCl, 1 mM DTT.
The target in series [2] is PGEG-hAGT (GST fusion) Asn157Gly, Ser159Glu (Homo sapiens) (UniProt P16455). Nature of the series: inhibition. The settings on record: BG-Cy3 reaction rate with 25 ug/ml DNA.
Chain of PGEG-hAGT (GST fusion) Asn157Gly, Ser159Glu (Homo sapiens) (P16455 whole entry N157G/S159E, the tested form may be a part): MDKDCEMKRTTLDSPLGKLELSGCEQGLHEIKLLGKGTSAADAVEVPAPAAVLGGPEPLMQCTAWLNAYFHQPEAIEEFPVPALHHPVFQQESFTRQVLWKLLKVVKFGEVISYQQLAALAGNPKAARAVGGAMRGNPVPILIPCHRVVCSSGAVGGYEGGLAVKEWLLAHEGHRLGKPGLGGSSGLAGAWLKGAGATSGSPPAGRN

Chain of AGT mutant of Example 1 (GST fusion) Lys125Ala, Ala127Thr, Arg128Ala, Asn157Gly, Ser159Glu (Homo sapiens) (P16455 whole entry K125A/A127T/R128A/N157G/S159E, the tested form may be a part): as the sequence (P16455 whole entry N157G/S159E, the tested form may be a part) above, with K125A, A127T, R128A counted along it

For co-purified E. coli DNA, the binding signal in series [1] was above 10 fold reduced.

salmon sperm DNA displayed an activity (fold rate reduction) in series [2] of 5.
